# Measurements reported in patent publication US20190022211A1 (CELLTRION, published 2019).
# “And” between values parts separate entries of the source, which are not always exact repeats. Equal entries are not always repeated.
# B1: antibody 2 (antibody, V domains shown)
# VH: EVQLVESGAEVKKPGASVKVSCKASGYTFTSYDISWVRQAPGQGLEWMGWISTYKGNTNFAQKFQDRVTLTTDTSTTTAYMELRSLTSDDTAVYYCARAKSHPFYDFWSAYYVPGAFDIWGQGTVVTVSS
# VL: not shown
# B2: antibody 1 (antibody, V domains shown)
# VH: VQLLQESGPGLAKPSETLSLICTVSGGSISRRRDYWGWIRQPPGRGLEWIGSFFHRGSTYYNPSLESRVSISVDPSKNQFSLHLSSVTVADTAVYYCARHPSTPFAEYLLLPDAFDSWGQGTLVTVSS
# VL: DIVMTQSPATLSVSPGERATLSCRASQSVRSSLAWYQQRPGQAPRLLISGASTRATDIPARLSGSGSGTEFTLTVSSLQSEDFAVYYCQQYSDWPLTFGGGTKVEIKR
# Legend:
# [1] = biological target: G protein of rabies virus DR Brazil , on virus (rabies virus); assay: cell-based or functional assay
# [2] = biological target: G protein of rabies virus Mongoose RSA , on virus (rabies virus); assay: cell-based or functional assay
binder,measurement,setting,value
B1,neutralizing activity (RFFIT),[1],1.8 IU/mL and 1800 IU/mg
same,"neutralizing activity (RFFIT), Titer",[1],45
same,neutralizing activity (RFFIT),[2],9.1 IU/mL and 9140 IU/mg
same,"neutralizing activity (RFFIT), Titer",[2],320
B2,neutralizing activity (RFFIT),[1],2.2 IU/mL and 2240 IU/mg
same,"neutralizing activity (RFFIT), Titer",[1],56
same,neutralizing activity (RFFIT),[2],7.7 IU/mL and 7710 IU/mg
same,"neutralizing activity (RFFIT), Titer",[2],270
